Measurements as given in publication PMC5952157.

Biological target: V5-HAX-1 (HCLS1-associated protein X-1) (human) (UniProt O00165)
Experiment: co-IP

Sequence of UniProt O00165 (O00165 whole entry): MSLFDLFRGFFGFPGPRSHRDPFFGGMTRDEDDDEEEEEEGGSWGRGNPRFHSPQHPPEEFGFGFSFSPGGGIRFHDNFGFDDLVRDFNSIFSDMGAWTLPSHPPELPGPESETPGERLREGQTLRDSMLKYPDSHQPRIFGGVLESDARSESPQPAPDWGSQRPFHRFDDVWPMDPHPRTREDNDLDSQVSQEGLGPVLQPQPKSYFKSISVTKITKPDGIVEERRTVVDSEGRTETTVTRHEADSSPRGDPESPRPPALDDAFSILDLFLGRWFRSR

VN/1203 PB1-F2 coexpressed as competitor (Figure 8c) (natural protein)
percent decrease of HAX-1 bound to PA in the presence of PB1-F2: 80%
